Molecular target: T1, DsbA C33S (Escherichia coli, UniProt P0AEG4 20-208, C33S)
T1 sequence (looked up): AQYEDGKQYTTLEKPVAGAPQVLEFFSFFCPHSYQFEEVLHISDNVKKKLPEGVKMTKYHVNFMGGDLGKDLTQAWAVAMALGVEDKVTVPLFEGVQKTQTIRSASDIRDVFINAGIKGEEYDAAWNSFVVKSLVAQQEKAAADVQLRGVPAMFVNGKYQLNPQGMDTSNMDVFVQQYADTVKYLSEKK
Test: absorbance titration at 500 nm

binding result: binds
B1: His-tagged "wildtype" DsbB containing mutations of nonessential cysteines (C8A, C49V) (enzyme, Escherichia coli, UniProt P0A6M2 1-176, looked up)
chain: MLRFLNQASQGRGAWLLMAFTALALELTALWFQHVMLLKPCVLCIYERVALFGVLGAALIGAIAPKTPLRYVAMVIWLYSAFRGVQLTYEHTMLQLYPSPFATCDFMVRFPEWLPLDKWVPQVFVASGDCAERQWDFLGLEMPQWLLGIFIAYLIVAVLVVISQPFKAKKRDLFGR
